# Assay: soluble on expression in E. coli; label from the status in PepcDB or PDB records
row,Sequence,soluble on expression in E. coli
1,MNRYDRAITIFSPDGHLFQVEYAQEAVKKGSTAVGVRGKDCIVIGVEKKSIPALQDDRTIRKIHMIDDHVMLAFAGLSADARVLVDRARIECQSYKLTLEDPVTVAYISRYIANTKQRFTQSPGRRPFGISMLIGGFDHDGTPRLFKTEPSGAYYEYVANATGRGEKPVREYLEEQYSEENTVDEATTLKLVVKSLAQVVPPGSQNIEIAVMKKVNDELQQRVLSTEEIEALLKVVETERVAAEAEEAASKKK,not soluble
2,MNSCNRLPCAHEVLAVFAHPDDESFGLGAVLGDFTAQGTRLRGLCFTHGEASTLGRTDRNLGEVRREELAAAAQVLGVDHVQLLAYPDNGLAQIPLNELTQRVVDALAGADLLLVFDDNGVTGHPDHRRATEAALAAASTPSIPVLAWALPQPIADRLNAEFSASFGGRGHGHLDIMIEVDRSRQLAAIGCHFTQSADNPVLWRRLELLGDREYLRWLRRSVP,soluble
3,MNSLLRLSHLAGPAHYRALHSSSSIWSKVAISKFEPKSYLPYEKLSQTVKIVKDRLKRPLTLSEKILYGHLDQPKTQDIERGVSYLRLRPDRVAMQDATAQMAMLQFISSGLPKTAVPSTIHCDHLIEAQKGGAQDLARAKDLNKEVFNFLATAGSKYGVGFWKPGSGIIHQIILENYAFPGLLLIGTDSHTPNGGGLGGLCIGVGGADAVDVMADIPWELKCPKVIGIKLTGKLNGWTSAKDVILKVADILTVKGGTGAIVEYFGPGVDSISATGMGTICNMGAEIGATTSVFPYNESMYKYLEATGRKEIAEEARKYKDLLTADDGANYDQIIEINLDTLTPHVNGPFTPDLASSIDKLGENAKKNGWPLDVKVSLIGSCTNSSYEDMTRAASIAKQALDKGLKAKTIFTITPGSEQVRATIERDGLSKIFADFGGMVLANACGPCIGQWDRQDVKKGEKNTIVTSYNRNFTGRNDANPATHGFVTSPDITTAMAISGRLDFNPLTDELTAADGSKFKLQAPTGLDLPPKGYDPGEDTFQAPSGSGQVDVSPSSDRLQLLSPFDKWDGKDLEDMKILIKVTGKCTTDHISAAGPWLKYRGHLDNISNNLFLTAINADNGEMNKVKNQVTGEYGAVPATARKYKADGVRWVAIGDENYGEGSSREHAALEPRHLGGRAIIVKSFARIHETNLKKQGMLPLTFANPADYDKIDPSDNVSIVGLSSFAPGKPLTAIFKKTNGSKVEVTLNHTFNEQQIEWFKAGSALNRMKEVFAKSK,soluble
4,MNSLRPELLELTPQALTALSNAGFVKRSLKELENGNVPEISHENSALIATFSDGVRTQLANGQALKEAQCTYGASGMCRHRVMLVLSYQRLCATAQPTGKEEEWDPAIWLEELATLPDATRKRAQALVAKSITIELFCAPGEIPSARLPMSDVRFYSRSSIRFARCDCIEGTLCEHVVLAVQAFVQAKAQQAELTHLIWQMRSEHVTSSDDPFASEEGKTCRQYVQQLSQALWLSGISQPLIHYEAAFSRAQQAAERCSWRWVSESLRQLRASVDAFHARASHYHAGECLRQLAALNSRLNCAQEMARSDSVGEVPPVPWRTVVGSGIAGEAKLDHLRLVSLGMRCWQDIEHYGLRIWFTDPDTGSILHLSRSWPRSEQEDSPAATRRLFSFQAGALAGGQIVSQAAKRSADGELLLATRNRLSSVVPLSPDAWQMLSAPLRQPGIVALREYLRQRPPACIRPLNQVDNLFILPVAECISLGWDSSRQTLDAQVISGEGEDNLLTLSLPASASAPYAIERMAALLQQTDDPVCLVSGFVSFVDGQLTLEPQVMMTKTRAWALDAETAPVVVSLPSASVLPVPSTAHQLLMRCQALLIQLLHNGWRYQEQSAINQAELLANDLTAVGFYRLAHVLAQFRNTESEARVEAMNNGVLLCEQLFPMLQQQG,not soluble
5,MNSTHHYEQLIEIFNSCFADDFNTRLIKGDDEPIYLPADAEVPYNRIVFAHGFYASAIHEISHWCIAGKARREQVDFGYWYCPDGRDAQTQSQFEDVEVKPQALDWLFCVAAGYPFNVSCDNLEGDFEPDRVVFQRRVHAQVMDYLTNGIPERPARFIKALQNYYHTPELTAEQFPWPEALN,soluble
6,MNSYPLISVIMSVYKEEREWLVSSIQSILDQTVSDFEFIIILDFPNSELLKTLKDFEKKDSRIIIYQNEKNVGLVESLNTALSFSRGKYIARMDADDISHKNRFEKQLKYITLNNLDLVGGNVNIFHSNKGIYNTTDKVQSDYFLCKLLKIGTIGIVHPTFFSKRNVYDTIGGYYHAECAEDLELLMRANLNGFKIGNIPDVILDCRYSEKSITKENAYFMFCTVKYLKSLYRSSLKSGDYKFNSNYIELYLYDENNKLAFSEKQNLMSEARHSFNEKKYISFLINLIKSILISRTVFFSIKVNVMSFLFRKVEVKIPKVLLACIKIKLQLEHHHHHH,soluble
7,MNTAQLTSKQTLSYVEQTALVLLGMGEDAAAKVLQHFTRDETQRVTRAMAKLNGIKSDSARGVIQNFFEDFREHSGIRGASKEYLSNTLRKALGNDLAKGLLNNLYGDEIRNNMQRLQWVEAETLARFIVNEHPQMQAIFLAYLPADSSSAVLKHLPQDYHDEIIFRIAQLQDIDHQVATDLHELVERCIEKVSASQSVPLSGVKQAADIINRFEGDRGSLMEMLKLHDEEVVNAIEEN,not soluble
8,MNTAVKAAVAAALVMGVSSFANAAGSNTGTVTFTGTIEDSPCSIVVGDEHQTVNLGHIGTGSLMGGKESSKVDFHIGLENCAFTTEKEASTVFSAIGNESSANPGSVALMRIGGGEMAGSSIVIGNHLGSAIKLGDAYSENLTMNGSVAAAKQTLNFKAWVKGDSAATTIDTGEFSSTVNFTISYL,not soluble
9,MNTEEQPVTASLVAEAQRLDFLPTYFGPRLMMRGEALVYAWMRRLCERYNGAYWHYYALSDGGFYMAPDLAGRLEIEVNGNGFRGELSADAAGIVATLFALGQLAAEIADTDAADALIDRYHFLRGFAAGHPEAAAIYRAID,soluble
10,MNTGEMKINWVSRYMPLLNKIAEEYSREKPLSGFTVGMSIHLEAKTAYLAITLSKLGAKVVITGSNPLSTQDDVAEALRSKGITVYARRTHDESIYRENLMKVLDERPDFIIDDGGDLTVISHTEREEVLENLKGVSEETTTGVRRLKALEETGKLRVPVIAVNDSKMKYLFDNRYGTGQSTWDAIMRNTNLLVAGKNVVVAGYGWCGRGIALRAAGLGARVIVTEVDPVKAVEAIMDGFTVMPMKEAVKIADFVITASGNTDVLSKEDILSLKDGAVLANAGHFNVEIPVRVLEEIAVEKFEARPNVTGYTLENGKTVFLLAEGRLVNLAAGDGHPVEIMDLSFALQIFAVLYLLENHRKMSPKVYMLPDEIDERVARMKLDSLGVKIDELTEKQRRYLRSWQ,soluble
11,MNTKCLREKIEKIKPHLLKTASDTLQGYVFGCMIGVFSSSEKPSLRHVHESGKSFAKVSMIYSTTESALQLYGSKNAPLNSLISGAVAGGLGVNDRSKKSILTGAASFGLYTGMSNIFSVQGQK,not soluble
12,MNTKFLGKTLVASALVLTTLGTGLHSSYLGLDTNKVVKTAKAEEKMTDGQLWKKVKDSLHDSDIILSNEYETINVTYLLSNGYSSSVSAPGNDDGGHLTQSIDFKGLKQIDLTKENVYDDFNKKLDAKNTWNSLTEKLKGLGLLQNGQKVSIYSSDSSSPVSGKVGEGVTSGGENTLTKRFINKITID,not soluble
13,MNTPSRTHLVIIPSYNPGPKVYETVQAARRYWNPVWVVVDGSTDGTWEGLLKLSAEDSGLVVLGMPANRGKGAAVLRGLLTSRRKGFTHALVMDSDGQHPADRIPEFMARSQEEPDAMILGVPVFDDSAPSLRVKGRRISNWWANLETLWCGIGDSLFGFGVYPIQALCVIMQDHQWMRRFDFDPEAAVRLCWAGIRPVNLPVPVYYPKPEEGGTSHFHYWRDNALLTWMHVRLMFGFLARLPILLARIVRRPEILEHHHHHH,not soluble
14,MNTQFSCVGCGKCCNDHHVPLTLLEARDWAADGGQVIILVEAFLGNGLGLPMQQREHAERRSCRVRSGATEAYVAITFAAYNVGPCRNLDEDQLCRIYQRRPLVCRIYPMEINPHIPLNPQAKECPPESWEQGPQLILGNELVDQELAELIRRSRQADRDDIHTKEAICALLGIRTTALKGDGFTAYLPDMGALANAIDQVQAAPPGAPGQPWRFHLSGDDIAGQVQAAGAQVVSETPLDYAFISLRAALEHHHHHH,soluble

# Reference: the DeepSol protein solubility set
